US20170035903A1 (GAMAMABS PHARMA, published 2017)

T1: human anti-Müllerian hormone type II receptor (AMHR-II) on COV434 cells (human, UniProt Q16671 18-573)
T1 construct: Receptor at the surface of the COV434 AMHR-II transfected line (about 20000 receptors) or the COV434 WT line (about 2000 receptors); also called AMHR2; AMHR-II surface receptor
T1 sequence: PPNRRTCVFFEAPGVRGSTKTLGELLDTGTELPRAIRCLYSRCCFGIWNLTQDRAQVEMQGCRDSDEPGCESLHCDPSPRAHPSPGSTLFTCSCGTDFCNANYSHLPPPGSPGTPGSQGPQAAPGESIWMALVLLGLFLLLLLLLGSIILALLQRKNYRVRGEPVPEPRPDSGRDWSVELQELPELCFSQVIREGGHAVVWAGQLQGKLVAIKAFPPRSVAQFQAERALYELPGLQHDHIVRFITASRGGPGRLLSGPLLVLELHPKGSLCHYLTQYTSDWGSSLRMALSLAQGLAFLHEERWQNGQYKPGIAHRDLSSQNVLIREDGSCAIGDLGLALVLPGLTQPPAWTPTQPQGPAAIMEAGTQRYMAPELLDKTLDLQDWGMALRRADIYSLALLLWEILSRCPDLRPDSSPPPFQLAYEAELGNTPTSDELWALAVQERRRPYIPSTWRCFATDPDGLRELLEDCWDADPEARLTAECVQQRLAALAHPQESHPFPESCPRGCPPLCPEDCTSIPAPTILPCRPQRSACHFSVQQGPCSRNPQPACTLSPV


Legend:
[1] = molecular target: T2, AMHR-II-ECD-Fc (R&D System) (human, UniProt Q16671 18-149); test: SPR (Bia3000), AMHR-II-ECD-Fc immobilised on CM5, antibody injected, Langmuir 1:1 fit
T2 construct: Bought construct; also called recombinant AMHR-II; AMHR-II recombinant protein; not shown: Fc part of the bought AMHR-II-ECD-Fc (R&D System)
Protocol: (§1) Immobilization of AMHRII was performed on a Bia3000 apparatus at 25° C. in HBS-EP (HEPES 10 mM, NaCl 150 mM, EDTA 3 mM, P20 surfactant 0.005%) at […] flow rate on CM5 sensor chip using EDC/NHS (1-Ethyl-3-3-dimethylaminopropyl carbodiimidehydrochloride) activation according to the manufacturer's instructions (GEHealthcare). Briefly, carboxyl functions of CM5 sensor chip were activated with 0.4M EDC/0.1M NHS during 7 min. A solution of AMHR-II-ECD-Fc (R&D System) at 2.5 μg/ml in sodium acetate buffer was injected during 12 min. An injection of 1M ethanolamine hydrochloride was used to neutralize the activation. […] A control reference surface was prepared using the same chemical treatment of without injection of AMHRII.
(§2) Antibodies at different concentrations (from 0.5 nM to 133 nM) were injected during 180s on AMHRII-coated flowcell and the control flowcell. After a dissociation step of 400s in running buffer, sensor surfaces were regenerated using 5 μl of Glycine-HCl pH1.7. All the sensorgrams were corrected by subtracting the low signal from the control reference surface. Kinetic parameters were evaluated from the sensorgrams using a Langmuir 1:1 fitting model on the BiaEvaluation 4.2 software.

[2] = molecular target: T1, human anti-Müllerian hormone type II …; test: flow cytometry on COV434 WT cells, antibody at 10 µg/ml
Protocol: B) FACS histogram profiles of COV434WT staining at 10 μg/ml of antibodies. C) Percentage of COV434 WT cell staining with the antibodies.
(§3) The COV434 AMHR-II transfected and the COV434 WT cell lines were maintained in DMEM/GlutaMax (Gibco) supplemented with 10% FBS, penicillin 100 U/ml and Streptomycin 100 μg/ml. Geneticin at 666 μg/ml was added for the COV434 AMHR-II transfected cell line. […] After washes, Phycoerythrin-conjugated anti-human IgG antibody (1:200, Beckman-Coulter) was added for 1 hour at room temperature. FACS analysis of the resuspended cells was done on a BD Accuri™ C6 flow cytometer (BD Bioscience).
(§4) FACS analysis with COV434-AMHR-II transfected cell line is described in FIG. 16. […] The binding capacity of these variants was also assayed on the low expressing AMHR-II COV434 WT cell line.

[3] = molecular target: T2, AMHR-II-ECD-Fc (R&D System); test: ELISA, 50 ng per well AMHR-II-ECD-Fc coated, HRP anti-human F(ab')2 detection
Protocol: ELISA plates (96 wells, Maxisorp, NUnc) were coated overnight at +4° C. with 50 ng per well of AMHR-II-ECD-Fc (R&D System). Coated ELISA plates were blocked with PBS-BSA 4% for 2 hours at 37° C. and washed three times with PBS-Tween20 0.05%. […] The bound anti-AMHR-II antibodies were detected by adding HRP-conjugated F(ab′)2 goat anti-human F(ab′2) fragment specific (Interchim) diluted at 1:10000 and incubated for one hour at 37° C. Revelation was done with TMB (Sigma) and the reaction was stopped by adding H2SO4 1N (v:v). Absorbances were measured at 450 nm and binding data curves were analysis using GraphPad Prism.

[4] = molecular target: T2, AMHR-II-ECD-Fc (R&D System); test: SPR (Bia3000), AMHR-II-ECD-Fc immobilised; against parental murine 12G4
Protocol: as §1, §2

[5] = molecular target: T1, human anti-Müllerian hormone type II …; test: flow cytometry on COV434 AMHR-II transfected cells, Hill slope fit
Protocol: (§5) Binding was determined by FACS analysis in the range of concentrations 0.034 to 8 μg/ml. Binding data curves were analyzed used specific binding with Hill slope equation from GraphPad Prism.
as §3, §4

[6] = molecular target: T1, human anti-Müllerian hormone type II …; test: flow cytometry on COV434 AMHR-II transfected cells
Protocol: as §5, §3, §4

[7] = molecular target: T1, human anti-Müllerian hormone type II …; test: flow cytometry on COV434 AMHR2 transfected cells, 0.034 to 8 µg/ml
Protocol: as §5, §3, §4

Row | Binder | Ka [1] [M⁻¹] | Kd [1] [nM] | koff [1] [s⁻¹] | kon [1] [M⁻¹ s⁻¹] | percent of COV434 WT cells stained [2] [%] | EC50 [3] [nM] | fold higher association rate against 12G4 [4] [fold] | fold lower dissociation rate against 12G4 [4] [fold] | Kapparent [5] [µg/mL] | fold improvement of Kapparent against 3C23K [6] [fold] | fold affinity improvement against 3C23K [7] [fold]
1 | murine 12G4 antibody (antibody, from another filing, V domains shown) VH: QVQLQQSGPELVKPGASVRMSCKASGYTFTSYHIHWVKQRPGQGLEWIGWIYPGDDSTKYNEKFKGKTTLTADKSSSTAYMLLSSLTSEDSAIYFCTRGDRFAYWGQGTLVTVSA VL: QIVLTQSPAIMSASLGEGITLTCSASSSVRYIHWYQQKSGTSPKLLIYSTSNLASGVPSRFSGSGSGTFHSLTISSVEAEDAADYYCLQWSSYPWTFGGGTKLEIK | 1.27e+09 | 0.788 | 2.28e-05 | 28900 |  |  |  |  |  |  | 
2 | humanized low fucose 3C23K antibody (antibody, human IgG1, kappa, V domains shown, Humanized from murine 12G4, low fucose, prepared as in WO2011/141653A1; also called unconjugated 3C23K; 3C23K unconjugated; copies: 2 + 2) VH: QVRLVQSGAEVKKPGASVKVSCKASGYTFTSYHIHWVRQAPGQRLEWMGWIYPGDDSTKYSQKFQGRVTITRDTSASTAYMELSSLRSEDTAVYYCTRGDRFAYWGQGTLVTVSS VL: DIQMTQSPSTLSASVGDRVTITCRASSSVRYIAWYQQKPGKAPKLLTYPTSSLKSGVPSRFSGSGSGTEFTLTISSLQPDDFATYYCLQWSSYPWTFGGGTKVEIKR | 1.81e+10 | 0.0553 | 6.93e-06 | 125000 | 9.8 | 0.018 | 5 | 3 | 2.2 |  | 
3 | K4D-24 (antibody, V domains shown, Variant of 3C23K with H-Q1R (Kabat)) VH: RVRLVQSGAEVKKPGASVKVSCKASGYTFTSYHIHWVRQAPGQRLEWMGWIYPGDDSTKYSQKFQGRVTITRDTSASTAYMELSSLRSEDTAVYYCTRGDRFAYWGQGTLVTVSS VL: DIQMTQSPSTLSASVGDRVTITCRASSSVRYIAWYQQKPGKAPKLLTYPTSSLKSGVPSRFSGSGSGTEFTLTISSLQPDDFATYYCLQWSSYPWTFGGGTKVEIK |  |  |  |  | 76.8 |  |  |  | 0.098 | 20 | 22
4 | 6C59 (antibody, V domains shown, Variant of 3C23K with H-Q1R, L-S27P and L-S28P (Kabat)) VH: RVRLVQSGAEVKKPGASVKVSCKASGYTFTSYHIHWVRQAPGQRLEWMGWIYPGDDSTKYSQKFQGRVTITRDTSASTAYMELSSLRSEDTAVYYCTRGDRFAYWGQGTLVTVSS VL: DIQMTQSPSTLSASVGDRVTITCRASPPVRYIAWYQQKPGKAPKLLTYPTSSLKSGVPSRFSGSGSGTEFTLTISSLQPDDFATYYCLQWSSYPWTFGGGTKVEIK |  |  |  |  | 82.2 |  |  |  | 0.05 | 40 | 
